US20200407442A1 (WUXI BIOLOGICS IRELAND, published 2020)

T1: human LAG-3-ECD.D12.mFc mutant T62A (human, UniProt P18627 37-252)
T1 construct: Alanine scanning mutant; construct limits as for m26
T1 chain: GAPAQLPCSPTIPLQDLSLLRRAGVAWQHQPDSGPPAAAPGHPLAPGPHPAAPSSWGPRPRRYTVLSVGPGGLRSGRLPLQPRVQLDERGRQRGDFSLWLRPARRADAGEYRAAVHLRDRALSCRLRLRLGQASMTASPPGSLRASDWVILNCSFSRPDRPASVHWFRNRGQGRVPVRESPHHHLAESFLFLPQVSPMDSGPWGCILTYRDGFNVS

T2: human LAG-3-ECD.D12.mFc mutant W135A (human, UniProt P18627 37-252)
T2 construct: Alanine scanning mutant; construct limits as for m26
T2 chain: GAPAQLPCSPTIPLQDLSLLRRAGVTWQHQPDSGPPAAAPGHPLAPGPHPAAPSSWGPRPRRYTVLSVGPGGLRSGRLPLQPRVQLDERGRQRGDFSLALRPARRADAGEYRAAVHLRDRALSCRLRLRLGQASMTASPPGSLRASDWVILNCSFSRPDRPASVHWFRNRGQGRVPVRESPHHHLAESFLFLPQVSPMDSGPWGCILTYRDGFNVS

T3: human LAG-3-ECD.D12.mFc mutant A40G (human, UniProt P18627 37-252)
T3 construct: construct limits as for m26
T3 chain: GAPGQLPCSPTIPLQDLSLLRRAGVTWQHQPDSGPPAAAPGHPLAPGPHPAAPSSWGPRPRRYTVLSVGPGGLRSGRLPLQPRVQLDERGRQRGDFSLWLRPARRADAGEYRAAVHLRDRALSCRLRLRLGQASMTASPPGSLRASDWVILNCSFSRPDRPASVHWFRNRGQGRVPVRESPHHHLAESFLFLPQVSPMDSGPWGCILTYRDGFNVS

T4: human LAG-3-ECD.D12.mFc mutant D155A (human, UniProt P18627 37-252)
T4 construct: Alanine scanning mutant; construct limits as for m26
T4 chain: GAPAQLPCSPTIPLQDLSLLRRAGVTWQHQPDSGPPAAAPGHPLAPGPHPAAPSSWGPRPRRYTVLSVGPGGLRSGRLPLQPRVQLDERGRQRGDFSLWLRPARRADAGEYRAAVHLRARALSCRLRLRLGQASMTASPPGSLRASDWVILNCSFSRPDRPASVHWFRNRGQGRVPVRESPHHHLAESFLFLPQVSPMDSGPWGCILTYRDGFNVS

T5: human LAG-3-ECD.D12.mFc mutant R137A (human, UniProt P18627 37-252)
T5 construct: Alanine scanning mutant; construct limits as for m26
T5 chain: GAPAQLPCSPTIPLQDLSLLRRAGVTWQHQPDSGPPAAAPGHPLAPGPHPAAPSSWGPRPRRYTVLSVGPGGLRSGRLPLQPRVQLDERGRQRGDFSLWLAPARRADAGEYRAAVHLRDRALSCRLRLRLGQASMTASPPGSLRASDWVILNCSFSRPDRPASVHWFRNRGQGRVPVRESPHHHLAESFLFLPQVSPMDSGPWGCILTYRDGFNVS

T6: full-length mouse LAG-3 on cells (mouse, UniProt Q61790 24-521)
T6 construct: also called mPro1.FL; murine LAG-3
T6 sequence: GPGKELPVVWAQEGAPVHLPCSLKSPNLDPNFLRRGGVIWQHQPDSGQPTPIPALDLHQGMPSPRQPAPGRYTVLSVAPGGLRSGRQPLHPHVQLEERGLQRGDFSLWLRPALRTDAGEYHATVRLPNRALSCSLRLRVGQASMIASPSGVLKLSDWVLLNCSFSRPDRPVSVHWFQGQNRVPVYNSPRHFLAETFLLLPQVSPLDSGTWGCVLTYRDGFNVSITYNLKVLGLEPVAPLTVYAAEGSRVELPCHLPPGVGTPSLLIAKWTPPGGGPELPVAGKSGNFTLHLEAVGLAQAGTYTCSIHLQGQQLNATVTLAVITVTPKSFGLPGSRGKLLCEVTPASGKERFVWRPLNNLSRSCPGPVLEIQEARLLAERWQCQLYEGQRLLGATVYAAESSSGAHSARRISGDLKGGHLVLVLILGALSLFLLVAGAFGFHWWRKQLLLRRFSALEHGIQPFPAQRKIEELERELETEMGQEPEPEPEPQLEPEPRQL

T7: human LAG-3-ECD.D12.mFc mutant W92A (human, UniProt P18627 37-252)
T7 construct: Alanine scanning mutant; construct limits as for m26
T7 chain: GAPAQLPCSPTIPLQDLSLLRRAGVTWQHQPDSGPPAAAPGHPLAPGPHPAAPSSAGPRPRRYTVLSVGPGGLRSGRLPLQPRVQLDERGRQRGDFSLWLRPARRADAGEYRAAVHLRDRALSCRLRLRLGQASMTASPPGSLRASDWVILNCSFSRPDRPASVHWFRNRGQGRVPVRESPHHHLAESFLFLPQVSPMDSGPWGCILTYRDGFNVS


What was measured:
[1] = biological target: T1, human LAG-3-ECD.D12.mFc mutant T62A; test: ELISA, antibody coated, LAG-3 D12.mFc mutant in supernatant, normalised to control mutants
Procedure, shortened: (§1)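 Antibody 1.53.3-uAb-IgG4k or 3.40.19-uAb-hIgG4L coated at 2 μg/mL, then exposed to supernatant containing quantified LAG-3 D12.mFc mutants. Detection with HRP anti-mFc (1:5000). Absorbance normalized to mean of control mutants; binding fold change <0.75 set as epitope cutoff.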

[2] = biological target: T2, human LAG-3-ECD.D12.mFc mutant W135A; test: as above
Procedure, shortened: as §1

[3] = biological target: T3, human LAG-3-ECD.D12.mFc mutant A40G; test: as above
Procedure, shortened: as §1

[4] = biological target: T4, human LAG-3-ECD.D12.mFc mutant D155A; test: as above
Procedure, shortened: as §1

[5] = biological target: T5, human LAG-3-ECD.D12.mFc mutant R137A; test: as above
Procedure, shortened: as §1

[6] = biological target: T6, full-length mouse LAG-3 on cells; test: FACS on murine LAG-3-expressing Flp-In-CHO cells, MFI
Protocol: Cross-reactivity to cynomolgus and murine LAG-3 was measured by FACS. Murine LAG-3-expressing Flp-In-CHO cells or cynomolgus LAG-3-expressing 293F cells were transferred into 96-well U-bottom plates at a density of 1×10⁵ cells/well. Testing antibodies were serially diluted in wash buffer (1×PBS/1%BSA) and incubated with cells at 4° C. for 1 h. After washing with 1×PBS/1%BSA, corresponding secondary antibody was applied and incubated with cells at 4 ° C. in the dark for 1 h. The cells were then washed and resuspended in 1×PBS/1%BSA and then analyzed by flow cytometry.

[7] = biological target: T7, human LAG-3-ECD.D12.mFc mutant W92A; test: ELISA, antibody coated, LAG-3 D12.mFc mutant in supernatant, normalised to control mutants
Procedure, shortened: as §1

Fold Change [1]	Fold Change [2]	Fold Change [3]	Fold Change [4]	Fold Change [5]	binding result [6]	Fold Change [7]	Binder
0.727	0.049	0.608	0.701	0.101	–	–	3.40.19-uAb-IgG4L (antibody, V domains shown, Fully human antibody from OMT rats; IgG4 lambda by its name; also called 3.40.19-uAb-hIgG4L) VH: QLQLQESGPGLVKPSETLSLTCTVSGDSISSTSYYWGWIRQPPGKGLEWIGSFYYSGSTYYNPSLKSRVTISVDTSKNQFSLKLNSVTAADTAVYYCARMQLWSYDVDVWGQGTTVTVSS VL: QSALTQPASVSGSPGQSITISCTGTSSDVGGYDYVAWYQQHPGKVPKLMIYDVSERPSGVSNRFSGSKSGNTASLTISGLQAEDEADYYCSSYTSTTTLVVFGGGTKLSVL
–	–	–	–	–	no binding (tested: 6.7 nM)	0.554	1.53.3-uAb-IgG4k (antibody, V domains shown, Fully human antibody from OMT rats; IgG4 kappa by its name) VH: QVQLQQWGAGLLKPSETLSLTCGVYGGSFSGYYWSWIRQPPGMGLEWIGEINHRGNTNYNPSLKSRVTISEDTSKNQFSLRLSSVTAADTAVYFCTRGEDYSDYDYYGDFWGQGTLVTVSS VL: EIVLTQSPATLSLSQGERATLSCRASQSISSYLAWYQQKPGQAPRLLIYAASNRATGIPARFSGSGSGTDFTLTISSLEPEDFAIYYCQQRSNWPLTFGGGTKVEIK
